Common to all, as to assay: flow cytometry on cells; 12G5 antibody competition on 293T cells transiently transfected with CXCR4 wt or mutants (IRES-eGFP vector), eGFP-positive cells gated; serially diluted peptide with a constant concentration of CXCR4 antibody clone 12G5, 2 h; bound antibody read; IC50 by nonlinear regression
Common to all, as to details: one partner purified
A general note: A flow cytometer gives signals particle by particle.

The target in test [1] is T1, CXCR4 D97E + V112A + L41A (human, UniProt P61073-1 1-352, L41A | D97E | V112A).
T1 construct: human CXCR4, isoform 1 or b; also called L41A plus D97E plus V112A; source: 293T cells, transiently transfected (pcDNA3.1 CXCR4-IRES-eGFP), on cells
T1 sequence (P61073 whole entry L41A/D97E/V112A, canonical isoform): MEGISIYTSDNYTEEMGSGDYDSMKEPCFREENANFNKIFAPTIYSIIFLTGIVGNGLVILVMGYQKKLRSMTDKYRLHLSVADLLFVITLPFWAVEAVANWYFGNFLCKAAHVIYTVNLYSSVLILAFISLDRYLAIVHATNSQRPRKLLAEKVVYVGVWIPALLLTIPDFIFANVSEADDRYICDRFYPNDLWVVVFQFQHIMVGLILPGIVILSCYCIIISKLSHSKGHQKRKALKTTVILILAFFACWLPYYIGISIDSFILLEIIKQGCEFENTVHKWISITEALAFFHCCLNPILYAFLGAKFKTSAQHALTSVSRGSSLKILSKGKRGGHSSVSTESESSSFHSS

Test [2] addresses T2, CXCR4 D97E + V112L (human, UniProt P61073-1 1-352, D97E | V112L).
T2 construct: human CXCR4, isoform 1 or b; also called D97E plus V112L; source: 293T cells, transiently transfected (pcDNA3.1 CXCR4-IRES-eGFP), on cells

For test [3], the target named is T3, CXCR4 V112L (human, UniProt P61073-1 1-352, V112L).
T3 construct: human CXCR4, isoform 1 or b; source: 293T cells, transiently transfected (pcDNA3.1 CXCR4-IRES-eGFP), on cells
T3 sequence (P61073 whole entry V112L, canonical isoform): as the sequence (P61073 whole entry L41A/D97E/V112A, canonical isoform) above, with A41L, E97D, A112L counted along it

The target in test [4] is T4, CXCR4 L41A (human, UniProt P61073-1 1-352, L41A).
T4 construct: human CXCR4, isoform 1 or b; source: 293T cells, transiently transfected (pcDNA3.1 CXCR4-IRES-eGFP), on cells
T4 sequence (P61073 whole entry L41A, canonical isoform): as the sequence (P61073 whole entry L41A/D97E/V112A, canonical isoform) above, with E97D, A112V counted along it

Test [5] concerns the target T5, CXCR4 D97E (human, UniProt P61073-1 1-352, D97E).
T5 construct: human CXCR4, isoform 1 or b; source: 293T cells, transiently transfected (pcDNA3.1 CXCR4-IRES-eGFP), on cells

The target of test [6] is T6, CXCR4 D187E (human, UniProt P61073-1 1-352, D187E).
T6 construct: human CXCR4, isoform 1 or b; source: 293T cells, transiently transfected (pcDNA3.1 CXCR4-IRES-eGFP), on cells
T6 sequence (P61073 whole entry D187E, canonical isoform): as the sequence (P61073 whole entry L41A/D97E/V112A, canonical isoform) above, with A41L, E97D, A112V, D187E counted along it

The target in test [7] is T7, CXCR4 V112A + L41A (human, UniProt P61073-1 1-352, L41A | V112A).
T7 construct: human CXCR4, isoform 1 or b; also called L41A plus V112A; source: 293T cells, transiently transfected (pcDNA3.1 CXCR4-IRES-eGFP), on cells
T7 sequence (P61073 whole entry L41A/V112A, canonical isoform): as the sequence (P61073 whole entry L41A/D97E/V112A, canonical isoform) above, with E97D counted along it

Test [8] deals with T8, CXCR4 D97Q (human, UniProt P61073-1 1-352, D97Q).
T8 construct: human CXCR4, isoform 1 or b; source: 293T cells, transiently transfected (pcDNA3.1 CXCR4-IRES-eGFP), on cells
T8 sequence (P61073 whole entry D97Q, canonical isoform): as the sequence (P61073 whole entry L41A/D97E/V112A, canonical isoform) above, with A41L, E97Q, A112V counted along it

Test [9] deals with T9, CXCR4 wt (transfected 293T cells) (human, UniProt P61073-1 1-352).
T9 construct: human CXCR4, isoform 1 or b; eGFP is expressed separately from an IRES, not fused; also called wild-type CXCR4; source: 293T cells, transiently transfected (pcDNA3.1 CXCR4-IRES-eGFP), on cells
T9 sequence (P61073 whole entry, the tested form may be a part, canonical isoform): as the sequence (P61073 whole entry L41A/D97E/V112A, canonical isoform) above, with A41L, E97D, A112V counted along it

The target of test [10] is T10, CXCR4 V112A (human, UniProt P61073-1 1-352, V112A).
T10 construct: human CXCR4, isoform 1 or b; source: 293T cells, transiently transfected (pcDNA3.1 CXCR4-IRES-eGFP), on cells
T10 sequence (P61073 whole entry V112A, canonical isoform): as the sequence (P61073 whole entry L41A/D97E/V112A, canonical isoform) above, with A41L, E97D counted along it

The target of test [11] is T11, CXCR4 D97E + V112A (human, UniProt P61073-1 1-352, D97E | V112A).
T11 construct: human CXCR4, isoform 1 or b; also called D97E plus V112A; source: 293T cells, transiently transfected (pcDNA3.1 CXCR4-IRES-eGFP), on cells
T11 sequence (P61073 whole entry D97E/V112A, canonical isoform): as the sequence (P61073 whole entry L41A/D97E/V112A, canonical isoform) above, with A41L counted along it

The target of test [12] is T12, CXCR4 D97T (human, UniProt P61073-1 1-352, D97T).
T12 construct: human CXCR4, isoform 1 or b; source: 293T cells, transiently transfected (pcDNA3.1 CXCR4-IRES-eGFP), on cells
T12 sequence (P61073 whole entry D97T, canonical isoform): as the sequence (P61073 whole entry L41A/D97E/V112A, canonical isoform) above, with A41L, E97T, A112V counted along it

T5 sequence (P61073 whole entry D97E, canonical isoform): as the sequence (P61073 whole entry L41A/D97E/V112A, canonical isoform) above, with A41L, A112V counted along it
T2 sequence (P61073 whole entry D97E/V112L, canonical isoform): as the sequence (P61073 whole entry L41A/D97E/V112A, canonical isoform) above, with A41L, A112L counted along it

B1: EPI-X4 (Alb408-423) (peptide)
peptide: LVRYTKKVPQVSTPTL
notes: source: synthetic peptide (Fmoc solid-phase synthesis, HPLC-purified)
What is called IC50 is the midpoint of a concentration-inhibition curve. Take B1: the IC50 in test [1] was found to be 48.4 µM; in test [2] it was 223 µM; in [3], 41.1 µM; in test [4], 132 µM; in [5], 129 µM; in test [6] it was 8.52 µM. Besides, the IC50 is 78 µM in test [7]; above 1000 µM in [8]; 6.99 µM in test [9]; 11 µM in test [10]; 18 µM in [11]; above 1000 µM in test [12].

These data come from PMC8458281, “Computational modeling and experimental validation of the EPI-X4/CXCR4 complex allows rational design of small peptide antagonists” (Communications Biology, 2021).
